The results in this text go back to article doi:10.1101/2025.07.09.663943, “A multiplex extracellular interactome screening method employing high-avidity nanoparticles” (bioRxiv, 2025).

A value given as a limit tells only on which side of the number the result lay.

Test in all cases: Multiplex Interactome Assay (MPIA; bead-based, Luminex FLEXMAP 3D); runs D1-D4; baits ECD-hFc-ST3 on dimeric SC3 (SpyCatcher003-Cys) MagPlex beads, pooled; one prey a well: ECD-hFc-ST3 on 60-mer SC3-mi3 nanoparticles with GFP-V5-HA-ST3 adapter, 300 nM ECD where possible; 2 h at room temperature, 1% casein in 1x PBS; mouse anti-V5 and PE goat anti-mouse; read-out MFI; hit = seen in three of four runs

One assay has as its target PVR ECD-hFc-ST3 (human) (UniProt P15151).
For a further assay, the target named is WFIKKN2-hFc-ST3 (human) (UniProt Q8TEU8).
The target in another assay is T1, AXL ECD-hFc-ST3 (human, UniProt P30530 26-451).
T1 construct: AXL (tyrosine-protein kinase receptor UFO), human, extracellular domain; Dimeric ECD-hFc-ST3 fusion behind the influenza HA signal peptide; prey on SC3-mi3 nanoparticles, bait on SC3 beads; source: Expi293, transfected, purified from supernatant (Ni-NTA / HisTrapFF); not shown: Fc (human IgG1, DAPA mutations), C-terminal, kept; FLAG, C-terminal, kept; SpyTag003, C-terminal, kept
T1 sequence (looked up): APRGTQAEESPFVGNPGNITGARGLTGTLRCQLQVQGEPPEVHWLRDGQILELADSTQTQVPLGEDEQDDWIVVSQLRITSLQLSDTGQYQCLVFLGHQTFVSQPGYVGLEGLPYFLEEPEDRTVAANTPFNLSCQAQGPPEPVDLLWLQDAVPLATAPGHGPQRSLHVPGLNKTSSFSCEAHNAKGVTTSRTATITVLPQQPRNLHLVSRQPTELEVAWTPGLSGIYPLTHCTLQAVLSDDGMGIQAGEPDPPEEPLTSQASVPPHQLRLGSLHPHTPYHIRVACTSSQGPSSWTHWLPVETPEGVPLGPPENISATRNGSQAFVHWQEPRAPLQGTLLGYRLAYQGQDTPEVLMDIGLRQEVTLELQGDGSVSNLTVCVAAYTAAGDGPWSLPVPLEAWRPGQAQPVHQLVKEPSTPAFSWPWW
Particulars: both partners purified.

For another assay, the target named is T2, IL6R ECD-hFc-ST3 (human, UniProt P08887 20-365).
T2 construct: IL6R (interleukin-6 receptor subunit alpha), human, extracellular domain; Dimeric ECD-hFc-ST3 fusion behind the influenza HA signal peptide; prey on SC3-mi3 nanoparticles, bait on SC3 beads; source: Expi293, transfected, purified from supernatant (Ni-NTA / HisTrapFF); not shown: Fc (human IgG1, DAPA mutations), C-terminal, kept; FLAG, C-terminal, kept; SpyTag003, C-terminal, kept
T2 sequence (looked up): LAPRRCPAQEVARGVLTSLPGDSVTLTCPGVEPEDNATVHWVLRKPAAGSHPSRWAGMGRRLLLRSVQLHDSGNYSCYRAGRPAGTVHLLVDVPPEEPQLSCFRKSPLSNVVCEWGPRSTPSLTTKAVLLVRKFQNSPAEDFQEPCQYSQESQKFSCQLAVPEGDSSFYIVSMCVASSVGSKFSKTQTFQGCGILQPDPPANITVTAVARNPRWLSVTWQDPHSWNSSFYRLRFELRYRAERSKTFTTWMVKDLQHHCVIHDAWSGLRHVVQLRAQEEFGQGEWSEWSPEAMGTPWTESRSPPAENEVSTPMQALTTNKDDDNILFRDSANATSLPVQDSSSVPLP
Particulars: both partners purified.

Another assay deals with T3, IGFBPL1-hFc-ST3 (human, UniProt Q8WX77 26-278).
T3 construct: Dimeric hFc-ST3 fusion behind the influenza HA signal peptide; prey on SC3-mi3 nanoparticles, bait on SC3 beads; source: Expi293, transfected, purified from supernatant (Ni-NTA / HisTrapFF); not shown: Fc (human IgG1, DAPA mutations), C-terminal, kept; FLAG, C-terminal, kept; SpyTag003, C-terminal, kept
T3 sequence (looked up): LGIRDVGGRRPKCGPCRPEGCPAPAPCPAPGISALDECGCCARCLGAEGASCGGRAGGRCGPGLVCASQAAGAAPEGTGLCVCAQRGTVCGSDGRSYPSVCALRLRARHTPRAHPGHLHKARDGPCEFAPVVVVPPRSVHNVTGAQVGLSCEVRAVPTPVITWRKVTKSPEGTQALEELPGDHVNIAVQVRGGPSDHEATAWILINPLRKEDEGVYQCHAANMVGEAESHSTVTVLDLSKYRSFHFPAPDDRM
Particulars: both partners purified.

In assay [1] the target is PuncE11 ECD-hFc-ST3 (human) (UniProt Q8TDY8).

PVR ECD-hFc-ST3 (human), sequence (P15151 21-343): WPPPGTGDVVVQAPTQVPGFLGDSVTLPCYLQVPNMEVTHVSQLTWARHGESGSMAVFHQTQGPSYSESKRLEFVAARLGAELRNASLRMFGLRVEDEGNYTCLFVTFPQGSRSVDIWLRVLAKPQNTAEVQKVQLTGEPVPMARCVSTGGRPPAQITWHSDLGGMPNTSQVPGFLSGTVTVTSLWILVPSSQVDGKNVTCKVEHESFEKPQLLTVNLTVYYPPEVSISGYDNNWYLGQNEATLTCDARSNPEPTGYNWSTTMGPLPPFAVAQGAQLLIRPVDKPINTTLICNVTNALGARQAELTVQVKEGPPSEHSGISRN

“KIR2DL5 ECD-hFc-ST3 (from UniProt Q8N109 22-238) (Fc fusion)”: in the assay with PVR ECD-hFc-ST3 (human), the MFI was 5360. Turning to “PuncE11 ECD-hFc-ST3 (from UniProt Q8TDY8 25-957) (Fc fusion)”, the MFI with WFIKKN2-hFc-ST3 (human) was more than 7000.

B1: ILRL1 ECD-hFc-ST3 (Fc fusion, human, UniProt Q01638 19-328, looked up)
chain: KFSKQSWGLENEALIVRCPRQGKPSYTVDWYYSQTNKSIPTQERNRVFASGQLLKFLPAAVADSGIYTCIVRSPTFNRTGYANVTIYKKQSDCNVPDYLMYSTVSGSEKNSKIYCPTIDLYNWTAPLEWFKNCQALQGSRYRAHKSFLVIDNVMTEDAGDYTCKFIHNENGANYSVTATRSFTVKDEQGFSLFPVIGAPAQNEIKEVEIGKNANLTCSACFGKGTQFLAAVLWQLNGTKITDFGEPRIQQEEGQNQSFSNGLACLDMVLRIADVKEEDLLLQYDCLALNLHGLRRHTVRLSRKNPIDHHS
notes: The label ILRL1 is printed once only; Dimeric ECD-hFc-ST3 fusion behind the influenza HA signal peptide; prey on SC3-mi3 nanoparticles, bait on SC3 beads; source: Expi293, transfected, purified from supernatant (Ni-NTA / HisTrapFF); not shown: Fc (human IgG1, DAPA mutations), C-terminal, kept; FLAG, C-terminal, kept; SpyTag003, C-terminal, kept
In the case of B1, in the assay with AXL ECD-hFc-ST3, the MFI was found to be 5780.

B2: TIGIT ECD-hFc-ST3 (Fc fusion, human, UniProt Q495A1 22-141, looked up)
chain: MMTGTIETTGNISAEKGGSIILQCHLSSTTAQVTQVNWEQQDQLLAICNADLGWHISPSFKDRVAPGPGLGLTLQSLTVNDTGEYFCIYHTYPDGTYTGRIFLEVLESSVAEHGARFQIP
notes: TIGIT, human, extracellular domain; Dimeric ECD-hFc-ST3 fusion behind the influenza HA signal peptide; prey on SC3-mi3 nanoparticles, bait on SC3 beads; source: Expi293, transfected, purified from supernatant (Ni-NTA / HisTrapFF); not shown: Fc (human IgG1, DAPA mutations), C-terminal, kept; FLAG, C-terminal, kept; SpyTag003, C-terminal, kept
In the case of B2, the binding result with IL6R ECD-hFc-ST3 was “binds”.

B3: DCC ECD-hFc-ST3 (Fc fusion, human, UniProt P43146 26-1097, looked up)
chain: HLQVTGFQIKAFTALRFLSEPSDAVTMRGGNVLLDCSAESDRGVPVIKWKKDGIHLALGMDERKQQLSNGSLLIQNILHSRHHKPDEGLYQCEASLGDSGSIISRTAKVAVAGPLRFLSQTESVTAFMGDTVLLKCEVIGEPMPTIHWQKNQQDLTPIPGDSRVVVLPSGALQISRLQPGDIGIYRCSARNPASSRTGNEAEVRILSDPGLHRQLYFLQRPSNVVAIEGKDAVLECCVSGYPPPSFTWLRGEEVIQLRSKKYSLLGGSNLLISNVTDDDSGMYTCVVTYKNENISASAELTVLVPPWFLNHPSNLYAYESMDIEFECTVSGKPVPTVNWMKNGDVVIPSDYFQIVGGSNLRILGVVKSDEGFYQCVAENEAGNAQTSAQLIVPKPAIPSSSVLPSAPRDVVPVLVSSRFVRLSWRPPAEAKGNIQTFTVFFSREGDNRERALNTTQPGSLQLTVGNLKPEAMYTFRVVAYNEWGPGESSQPIKVATQPELQVPGPVENLQAVSTSPTSILITWEPPAYANGPVQGYRLFCTEVSTGKEQNIEVDGLSYKLEGLKKFTEYSLRFLAYNRYGPGVSTDDITVVTLSDVPSAPPQNVSLEVVNSRSIKVSWLPPPSGTQNGFITGYKIRHRKTTRRGEMETLEPNNLWYLFTGLEKGSQYSFQVSAMTVNGTGPPSNWYTAETPENDLDESQVPDQPSSLHVRPQTNCIIMSWTPPLNPNIVVRGYIIGYGVGSPYAETVRVDSKQRYYSIERLESSSHYVISLKAFNNAGEGVPLYESATTRSITDPTDPVDYYPLLDDFPTSVPDLSTPMLPPVGVQAVALTHDAVRVSWADNSVPKNQKTSEVRLYTVRWRTSFSASAKYKSEDTTSLSYTATGLKPNTMYEFSVMVTKNRRSSTWSMTAHATTYEAAPTSAPKDLTVITREGKPRAVIVSWQPPLEANGKITAYILFYTLDKNIPIDDWIMETISGDRLTHQIMDLNLDTMYYFRIQARNSKGVGPLSDPILFRTLKVEHPDKMANDQGRHGDGGYWPVDTNLIDRSTLNEPPIGQMHPPHGSVTPQKNSN
notes: DCC (netrin receptor DCC), human, extracellular domain; Dimeric ECD-hFc-ST3 fusion behind the influenza HA signal peptide; prey on SC3-mi3 nanoparticles, bait on SC3 beads; source: Expi293, transfected, purified from supernatant (Ni-NTA / HisTrapFF); not shown: Fc (human IgG1, DAPA mutations), C-terminal, kept; FLAG, C-terminal, kept; SpyTag003, C-terminal, kept
B3: the MFI with IGFBPL1-hFc-ST3 is more than 7000.

B4: WFIKKN2-hFc-ST3 (Fc fusion)
chain: LPPIRYSHAGICPNDMNPNLWVDAQSTCRRECETDQECETYEKCCPNVCGTKSCVAARYMDVKGKKGPVGMPKEATCDHFMCLQQGSECDIWDGQPVCKCKDRCEKEPSFTCASDGLTYYNRCYMDAEACSKGITLAVVTCRYHFTWPNTSPPPPETTMHPTTASPETPELDMAAPALLNNPVHQSVTMGETVSFLCDVVGRPRPEITWEKQLEDRENVVMRPNHVRGNVVVTNIAQLVIYNAQLQDAGIYTCTARNVAGVLRADFPLSVVRGHQAAATSESSPNGTAFPAAECLKPPDSEDCGEEQTRWHFDAQANNCLTFTFGHCHRNLNHFETYEACMLACMSGPLAACSLPALQGPCKAYAPRWAYNSQTGQCQSFVYGGCEGNGNNFESREACEESCPFPRGNQRCRACKPRQKLVTSFCRSDFVILGRVSELTEEPDSGRALVTVDEVLKDEKMGLKFLGQEPLEVTLLHVDWACPCPNVTVSEMPLIIMGEVDGGMAMLRPDSFVGASSARRVRKLREVMHKKTCDVLKEFLGLH
With B4, the MFI in assay [1] is more than 7000.
